The record followed here is patent US20160194407A1 (AstraZeneca / MedImmune, published 2016).

The target in assay [1] is cynomolgus CD73 (form not stated) (cynomolgus). In words: Binding, Cyno; assay not described.
Assay [2] concerns the target T1, human CD73 on cells (human, UniProt P21589 27-549).
T1 sequence: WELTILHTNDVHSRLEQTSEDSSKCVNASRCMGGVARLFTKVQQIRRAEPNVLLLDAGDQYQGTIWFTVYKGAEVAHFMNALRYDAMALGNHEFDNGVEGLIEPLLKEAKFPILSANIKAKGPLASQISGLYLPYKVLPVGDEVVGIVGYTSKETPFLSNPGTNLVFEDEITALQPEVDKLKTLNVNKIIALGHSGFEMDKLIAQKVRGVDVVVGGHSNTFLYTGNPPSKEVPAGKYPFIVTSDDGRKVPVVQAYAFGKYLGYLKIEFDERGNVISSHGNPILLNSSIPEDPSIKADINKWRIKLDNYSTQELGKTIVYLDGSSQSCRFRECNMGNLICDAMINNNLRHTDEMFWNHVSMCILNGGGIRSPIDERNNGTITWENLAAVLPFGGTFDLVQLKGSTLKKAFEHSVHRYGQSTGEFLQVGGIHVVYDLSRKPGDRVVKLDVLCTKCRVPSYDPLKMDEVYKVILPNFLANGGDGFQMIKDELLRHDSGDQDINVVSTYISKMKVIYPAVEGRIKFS
As to the kind of experiment: cell-based or functional assay.

Assay [3] deals with T2, cynomolgus CD73 on cells (cynomolgus).
T2 construct: whole, on cells; also called native CD73 on MK-1 cells (cynomolgus)
As to the kind of experiment: flow cytometry on MK-1 cells, IgG1-TM. (In general: A flow cytometer gives signals particle by particle.)

The target of assay [4] is T3, cynomolgus CD73 extracellular domain (ECD) (cynomolgus).
T3 construct: extracellular domain; also called Cynomolgus CD73 ECD; cyno CD73 (SPR Proteon)
In words: SPR (Proteon), IgG1-TM.

The target of assay [5] is T1, human CD73 on cells. As to the kind of experiment: cell-based or functional assay. The source holds these as a separate data set.
For assay [6], the target named is T4, recombinant human CD73 protein (form not stated) (human, UniProt P21589 27-549).
T4 construct: also called huCD73; rCD73
T4 sequence: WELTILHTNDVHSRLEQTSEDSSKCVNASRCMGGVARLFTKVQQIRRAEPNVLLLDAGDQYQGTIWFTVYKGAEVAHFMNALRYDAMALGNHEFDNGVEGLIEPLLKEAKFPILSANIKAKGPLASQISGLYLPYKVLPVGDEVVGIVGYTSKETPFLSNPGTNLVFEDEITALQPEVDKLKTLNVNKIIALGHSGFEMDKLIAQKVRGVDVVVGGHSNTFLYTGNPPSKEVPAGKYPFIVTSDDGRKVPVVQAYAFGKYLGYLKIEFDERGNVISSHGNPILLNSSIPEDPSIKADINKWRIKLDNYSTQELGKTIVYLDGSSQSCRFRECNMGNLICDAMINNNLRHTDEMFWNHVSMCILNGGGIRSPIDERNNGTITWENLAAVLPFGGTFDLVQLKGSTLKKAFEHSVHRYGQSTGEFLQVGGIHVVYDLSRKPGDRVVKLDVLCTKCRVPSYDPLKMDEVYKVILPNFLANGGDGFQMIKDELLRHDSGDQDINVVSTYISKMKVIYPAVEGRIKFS
In words: assay and target not stated in Table 11 (taken as human CD73).

B1: CD730021 antibody (antibody, IgG1, V domains shown)
VH: QVQLQESGPGLVRPSETLSLTCTVSGGSISSSSYYWAWVRQSPGKGLEWIGNIYYRGSTYYNPSLKSRVTMSVDMSKHQFSLKLSSLNAADTAVYYCASLYSGTYVFDYWGRGTLVTVSS
VL: QSVLTQPPSASGTPGQRVTISCSGSRPNIGGNTVNWYQQLPGAAPKLLIYSNSQRPSGVPDRFSGSKYGTSASLAISGLQSDDEADYYCGTWDDSLNGPVFGRGTKLTVL
notes: IgG1
For B1, the 1/EC50 in assay [1] is 0.0012 nM⁻¹.

B2: CD730047 antibody (antibody, IgG1, V domains shown)
VH: EVQLVQSGGGVVQPGRSLRLSCAASGFTFSSYGMHWVRQAPGKGLEWVAVISYDGSIKYYADSVKGRFAISRDNAKNTLYLQMNSLRREDTAMYYCASGLTGVAGALGVWGRGTLVTVSS
VL: QSVLTQPPSASGAPGQRVTISCSGSSSNIGSNTVNWYQRLPGAAPQLLIYNNDQRPSGIPDRFSGSKSGTSGSLVISGLQSEDEADYYCAAWDDSLSGNVFGTGTKVTVL
notes: IgG1
With B2, the 1/EC50 in assay [1] was 0 nM⁻¹.

B3: CD730004 antibody (antibody, IgG1, V domains shown)
VH: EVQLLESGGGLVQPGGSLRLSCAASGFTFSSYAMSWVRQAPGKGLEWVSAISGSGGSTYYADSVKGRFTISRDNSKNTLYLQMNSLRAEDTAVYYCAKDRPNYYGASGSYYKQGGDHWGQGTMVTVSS
VL: NFMLTQPHSVSESPGQTVTISCTRSSGSIASKYVQWYQKRPGSSPTTVIYEDTQRPSGVPDRFSGSIDISSNSASLTISGLRTEDEADYYCQSYDSTNWVFGGGTKVTVL
notes: IgG1
On to B3, for which, in assay [1], the 1/EC50 was found to be 2e-06 nM⁻¹.

B4: CD730008 antibody (antibody, IgG1, V domains shown)
VH: EVQLLETGGGLVQPGGSLRLSCAASGFTFSSYAMSWVRQAPGKGLEWVSAISGSGGSTYYADSVKGRFTISRDNSKNTLYLQMNSLRAEDTAVYYCARGNYGNLDHWGKGTLVTVSS
VL: QSVLTQPPSVSVSPGQTASITCSGDKVGDKYASWYQQKPGQSPVLVIYQDRKRPSGIPERFSGSNSGNTATLTISGTQPMDEADYYCQAWDSSHWVFGGGTKLTVL
As to B4, the 1/EC50 in assay [1] is 0.0011 nM⁻¹. The “1/EC50, Enzyme Inhibition, MDA-MB-231” value in assay [2] came out at 0.011 nM⁻¹.

B5: 73combo5 (G10 + GRVE + HPT) (antibody, IgG1, V domains shown)
VH: EVQLLESGGGLVQPGGSLRLSCAASGFTFSSYAYSWVRQAPGKGLEWVSAISGSWGRTYYADSVKGRFTISRDNSKNTLYLQMNSLRAEDTAVYYCARLGYGRVDEWGRGTLVTVSS
VL: QSVLTQPPSASGTPGQRVTISCSGSLSNIGRNDVNWYQQLPGTAPKLLIYLNNQRLGGVPDRFSGSKSGTSASLAISGLQSEDEADYYCATWDDSHPGWTFGGGTKLTVL
notes: also called clone 10 combo5
Usually Kd stands for the concentration at which binding is half-saturated. The low end stands for a tighter complex, the high end for a looser complex. B5 showed a Kd in assay [3] of 0.078 nM.

B6: CD730002 antibody (antibody, IgG1, V domains shown)
VH: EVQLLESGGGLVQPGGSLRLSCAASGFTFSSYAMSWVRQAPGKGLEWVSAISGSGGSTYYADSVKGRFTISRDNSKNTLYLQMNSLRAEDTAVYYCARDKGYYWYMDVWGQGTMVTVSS
VL: QSVLTQPPSVSVSPGQTATITCSGDKVGDKYASWYQQKPGQSPVLVIYEDTKRPSRIPERFSGSNSGNTATLTISGTQALDEADYFCQAWDTSFWVFGGGTKLTVL
notes: IgG1; tested as IgG1-TM; also called clone 2
As for B6, the results for the Kd in assay [3] and in assay [4] were 0.052 nM and 0.015 nM, respectively. The 1/EC50 in assay [1] is 0.2 nM⁻¹.

B7: 73combo1 (C1 + GRVE + HPT) (antibody, IgG1, V domains shown)
VH: EVQLLESGGGLVQPGGSLRLSCAASGFTFSSYAYSWVRQAPGKGLEWVSAISGSGGSTYYADSVKGRFTISRDNSKNTLYLQMNSLRAEDTAVYYCARLGYGRVDEWGRGTLVTVSS
VL: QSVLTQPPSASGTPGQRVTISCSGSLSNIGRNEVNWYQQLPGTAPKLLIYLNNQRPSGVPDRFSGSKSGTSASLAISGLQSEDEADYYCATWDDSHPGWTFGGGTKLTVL
notes: also called clone 10 combo1
For B7, the results for the dissociation constant (Kd) in assay [3] and in assay [4] were 0.09 nM and 0.008 nM, respectively.

B8: CD730002 2C5 (antibody, IgG1, V domains shown)
VH: EVQLLESGGGLVQPGGSLRLSCAASGFTFSSYAMSWVRQAPGKGLEWVSAISGSGGSTYYADSVKRRFTISRDNSKNTLYLQMNSLRAEDTAVYYCARDKGYYWYMDVWGQGTMVTVSS
VL: QSVLTQPPSVSVSPGQTASITCSGDKVGDKYASWYQQKPGQSPVLVIYEDTKRLSGIPERFSGSNSGNTATLTISGTQAMDEADYYCQAWDTSFWVFGGGTKLTVL
notes: IgG1; also called clone 2C5 antibody
As to B8, the dissociation constant Kd came to 0.063 nM in assay [3] and 0.009 nM in assay [4].

B9: CD730010 antibody (antibody, IgG1, V domains shown)
VH: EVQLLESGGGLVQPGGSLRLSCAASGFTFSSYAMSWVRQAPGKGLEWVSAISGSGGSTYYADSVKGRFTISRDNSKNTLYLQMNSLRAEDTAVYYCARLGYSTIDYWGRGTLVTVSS
VL: LPVLTQPPSVSGTPGQRVTISCSGSLSNIGRNPVNWYKQVPGTAPKLLIYLNNQRPSGVPDRFSGSKSGTSASLAISGLQSEDEADYYCATWDDSLNGWLFGGGTKLTVL
notes: IgG1; tested as IgG1-TM (L234F, L235E, P331S); also called clone 10
The EC50 is the concentration at which the effect is half-maximal. Consider B9, for which, in assay [5], the “FabZAP internalization, EC50, MDA-MB-231” value was 0.158 nM and the “FabZAP internalization, max toxicity, MDA-MB-231” value was determined as 84%. Also, in assay [1], the 1/EC50 was 0.0033 nM⁻¹. In assay [4], this molecule displayed a Kd of 1.92 nM. The EC50 in assay [6] turned out to be 69 nM.

B10: G10 (antibody, IgG1, V domains shown)
VH: EVQLLESGGGLVQPGGSLRLSCAASGFTFSSYAYSWVRQAPGKGLEWVSAISGSWGRTYYADSVKGRFTISRDNSKNTLYLQMNSLRAEDTAVYYCARLGYSTIDLWGRGTLVTVSS
VL: QSVLTQPPSASGTPGQRVTISCSGSLSNIGRNDVNWYQQLPGTAPKLLIYLNNQRLGGVPDRFSGSKSGTSASLAISGLQSEDEADYYCATWDDSLKGWLFGGGTKLTVL
notes: also called clone 10 G10
Molecule B10 registered an equilibrium dissociation constant (Kd) in assay [3] of 0.258 nM.

B11: CD730010 GL10 (antibody, V domains shown)
VH: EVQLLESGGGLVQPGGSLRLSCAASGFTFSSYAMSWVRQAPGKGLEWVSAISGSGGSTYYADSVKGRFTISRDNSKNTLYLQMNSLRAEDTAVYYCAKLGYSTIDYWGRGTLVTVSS
VL: LPVLTQPPSVSGTPGQRVTISCSGSLSNIGRNPVNWYKQVPGTAPKLLIYLNNQRPSGVPDRFSGSKSGTSASLAISGLQSEDEADYYCATWDDSLNGWLFGGGTKLTVL
Turning to B11, the EC50 in assay [6] amounted to 205 nM.

B12: C2 (antibody, IgG1, V domains shown)
VH: EVQLLESGGGLVQPGGSLRLSCAASGFTFSSYAYSWVRQAPGKGLEWVSLIWGSWGSTYYADSVKGRFTISRDNSKNTLYLQMNSLRAEDTAVYYCARLGYSTIDMWGRGTLVTVSS
VL: QSVLTQPPSASGTPGQRVTISCSGSLSNIGRNPVNWYQQLPGTAPKLLIYLDNLRLGGVPDRFSGSKSGTSASLAISGLQSEDEADYYCATWDDSLKGWLFGGGTKLTVL
notes: also called clone 10 C2
For B12, binding in assay [3] was put at a Kd of 0.105 nM.

B13: C1 (antibody, IgG1, V domains shown)
VH: EVQLLESGGGLVQPGGSLRLSCAASGFTFSSYAYSWVRQAPGKGLEWVSAISGSGGSTYYADSVKGRFTISRDNSKNTLYLQMNSLRAEDTAVYYCARLGYSTIDKWGRGTLVTVSS
VL: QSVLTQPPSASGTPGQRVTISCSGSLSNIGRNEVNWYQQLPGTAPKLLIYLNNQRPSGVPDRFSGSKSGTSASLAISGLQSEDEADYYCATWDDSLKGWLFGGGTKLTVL
notes: also called clone 10 C1
For B13, the results for the Kd in assay [3] and in assay [4] were 0.16 nM and 0.012 nM, respectively.

B14: 73combo2 (C2 + GRVE + HPT) (antibody, IgG1, V domains shown)
VH: EVQLLESGGGLVQPGGSLRLSCAASGFTFSSYAYSWVRQAPGKGLEWVSLIWGSWGSTYYADSVKGRFTISRDNSKNTLYLQMNSLRAEDTAVYYCARLGYGRVDEWGRGTLVTVSS
VL: QSVLTQPPSASGTPGQRVTISCSGSLSNIGRNPVNWYQQLPGTAPKLLIYLDNLRLGGVPDRFSGSKSGTSASLAISGLQSEDEADYYCATWDDSHPGWTFGGGTKLTVL
notes: also called clone 10 combo2
For the molecule B14, in assay [3], the Kd is 0.074 nM.

B15: CD730046 antibody (antibody, IgG1, V domains shown)
VH: QVQLVQSGGGVVQPGRSLRLSCAASGFTFSSYGMHWVRQAPGKGLEWVAVISYDGSIKYYADSVKGRFTISRDNSKNSLFLQMNSLRDDDTATYYCARGHLLRIGDIFYYSLDVWGQGTLVTVSS
VL: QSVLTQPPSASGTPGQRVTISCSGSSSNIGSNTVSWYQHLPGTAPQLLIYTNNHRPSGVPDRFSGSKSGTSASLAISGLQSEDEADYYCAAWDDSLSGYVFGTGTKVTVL
notes: IgG1
Consider B15, for which the 1/EC50 in assay [1] amounted to 0.01 nM⁻¹.

B16: CD730011 antibody (antibody, IgG1, V domains shown)
VH: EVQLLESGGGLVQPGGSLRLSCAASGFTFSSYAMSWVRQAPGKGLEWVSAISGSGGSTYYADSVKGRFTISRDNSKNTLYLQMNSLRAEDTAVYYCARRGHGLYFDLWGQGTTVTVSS
VL: NFMLTQPHSVSESPGKTVTISCTRSSGSIASKYVQWYQQRPGSSPMAVIYKDNQRSSGVPDRFSGSIDSSSNSASLTISGLKPEDEADYYCQSYDASNYYVFGTGTKVTVL
notes: IgG1; also called CD7300011
For the molecule B16, in assay [1], the 1/EC50 worked out at 0.0027 nM⁻¹.

B17: CD730042 antibody (antibody, IgG1, V domains shown)
VH: GVQLVQSGGGLVQPGGSLRLSCAASGFTFSSYGMHWVRQAPGKGLEWVAVISYDGSIKYYADSVKGRFTISRDDSKNALYLQMNSLRAEDTAVYYCSTLSGSYGYFDYWGRGTLVTVSS
VL: QSVLTQPASVSGSPGQSITISCAGTSSDVGGYNYVSWYQQHPGKAPKLMIYEGSKRPSGVSNRFSGSKSGNTASLTISGLQAEDEADYYCSSYTTRSTRVFGGGTKLTVL
notes: IgG1
As for B17, in assay [1], the 1/EC50 was found to be 0.0014 nM⁻¹.
